Test results reported in patent EP3623383A1 (Deutsches Krebsforschungszentrum, Stiftung des öffentlichen …, dated 2020).
Where a chain is given by its changes, count along the chain named.

T1: His tagged, recombinant FLT3 protein (Sino Biologicals) (human, UniProt P36888 27-541, limits assumed)
T1 construct: also called soluble recombinant FLT3 protein; not shown: His tag
T1 sequence (looked up): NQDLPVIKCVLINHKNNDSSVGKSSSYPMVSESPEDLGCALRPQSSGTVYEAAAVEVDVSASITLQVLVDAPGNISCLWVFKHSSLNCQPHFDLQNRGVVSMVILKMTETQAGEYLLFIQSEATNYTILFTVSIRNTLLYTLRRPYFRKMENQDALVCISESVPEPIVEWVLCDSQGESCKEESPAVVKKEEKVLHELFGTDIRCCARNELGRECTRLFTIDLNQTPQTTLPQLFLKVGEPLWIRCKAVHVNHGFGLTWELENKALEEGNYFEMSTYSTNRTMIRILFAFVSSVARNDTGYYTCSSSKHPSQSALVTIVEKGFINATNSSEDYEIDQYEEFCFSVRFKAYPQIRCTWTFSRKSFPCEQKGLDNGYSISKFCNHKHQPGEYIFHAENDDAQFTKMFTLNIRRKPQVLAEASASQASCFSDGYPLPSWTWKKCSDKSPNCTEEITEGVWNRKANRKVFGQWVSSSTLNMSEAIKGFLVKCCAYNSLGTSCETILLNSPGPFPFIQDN

T2: FLT3 as expressed on cells (NALM16 cells, FLT3+) (human, UniProt P36888 27-993)
T2 construct: whole, on cells; Endogenous FLT3 of a human leukemia cell line; also called Nalm16 cells expressing FLT3
T2 sequence (looked up): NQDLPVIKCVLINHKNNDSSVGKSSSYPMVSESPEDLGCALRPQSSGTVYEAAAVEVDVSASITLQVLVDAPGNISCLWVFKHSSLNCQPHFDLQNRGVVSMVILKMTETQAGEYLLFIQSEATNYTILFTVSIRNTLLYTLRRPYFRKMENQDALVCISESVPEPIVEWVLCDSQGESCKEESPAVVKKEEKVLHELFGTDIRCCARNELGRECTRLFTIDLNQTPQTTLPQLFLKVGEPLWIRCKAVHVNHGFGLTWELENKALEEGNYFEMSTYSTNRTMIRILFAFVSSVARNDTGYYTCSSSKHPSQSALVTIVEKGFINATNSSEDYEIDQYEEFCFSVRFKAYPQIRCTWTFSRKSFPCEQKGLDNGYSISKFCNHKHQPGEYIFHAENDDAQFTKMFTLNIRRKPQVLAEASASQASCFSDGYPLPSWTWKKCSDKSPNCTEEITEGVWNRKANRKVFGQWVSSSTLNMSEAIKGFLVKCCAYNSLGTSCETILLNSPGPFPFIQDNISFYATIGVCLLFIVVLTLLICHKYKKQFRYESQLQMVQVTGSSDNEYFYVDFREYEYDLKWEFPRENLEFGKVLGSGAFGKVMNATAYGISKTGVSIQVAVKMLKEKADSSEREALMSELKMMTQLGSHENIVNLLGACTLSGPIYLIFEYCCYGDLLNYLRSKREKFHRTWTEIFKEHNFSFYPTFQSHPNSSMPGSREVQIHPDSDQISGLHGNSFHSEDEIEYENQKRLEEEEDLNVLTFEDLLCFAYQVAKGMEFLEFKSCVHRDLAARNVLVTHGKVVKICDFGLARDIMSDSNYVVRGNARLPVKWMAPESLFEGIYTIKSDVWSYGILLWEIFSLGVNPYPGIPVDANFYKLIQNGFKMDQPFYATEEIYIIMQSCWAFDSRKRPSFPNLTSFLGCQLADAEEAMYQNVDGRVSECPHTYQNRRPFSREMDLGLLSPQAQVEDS

B1: V2-V6 (CC-2 variant 2, bispecific FLT3xCD3 IgGsc antibody) (bispecific antibody)
heavy: QVQLVQSGAEVKKPGGSLRLSCAASGYTFTSYWMHWVRQAPGQGLEWIGEIDPSDSYTDYAQKFKDRVTISRDTSKNTLYLQLSSLRAEDTAVYYCARAITTTPFDFWGQGTLVTVSSASTKGPSVFPLAPSSKSTSGGTAALGCLVKDYFPEPVTVSWNSGALTSGVHTFPAVLQSSGLYSLSSVVTVPSSSLGTQTYICNVNHKPSNTKVDKKVEPKSCDKTHTCPPCPAPPVAGPSVFLFPPKPKDTLMISRTPEVTCVVVGVSHEDPEVKFNWYVDGVEVHNAKTKPREEQYNSTYRVVSVLTVLHQDWLNGKEYKCKVSNKQLPSPIEKTISKAKGQPREPQVYTLPPSRDELTKNQVSLTCLVKGFYPSDIAVEWESNGQPENNYKTTPPVLDSDGSFFLYSKLTVDKSRWQQGNVFSCSVMHEALHNHYTQKSLSLSPGKSGDIQMTQSPSSLSASVGDRVTITCRASQDIRNYLNWYQQKPGKAPKLLIYYTSRLESGVPSRFSGSGSGTDYTLTISSLQPEDFATYYCQQGNTLPWTFGQGTKVEIKGGGGSGGGGSGGGGSEVQLVESGGGLVQPGGSLRLSCAASGYSFTGYTMNWVRQAPGKGLEWVALINPYKGVSTYNQKFKDRFTISVDKSKNTAYLQMNSLRAEDTAVYYCARSGYYGDSDWYFDVWGQGTLVTVSS
light: EIVMTQSPATLSVSPGERATLSCRASQSISNNLHWYQQKPGQAPRLLIKYASQSISGIPARFSGSGSGTEFTLTISSLQSEDFAVYFCQQSNTWPYTFGGGTKLEIKTVAAPSVFIFPPSDEQLKSGTASVVCLLNNFYPREAKVQWKVDNALQSGNSQESVTEQDSKDSTYSLSSTLTLSKADYEKHKVYACEVTHQGLSSPVTKSFNRGEC
notes: IgGsc format, Fc-attenuated; also called Version 2; Humanized 4G8 FLT3 variable region Variant 2 with V6 CD3 scFv
B2: V1-V6 (CC-2 variant 1, bispecific FLT3xCD3 IgGsc antibody) (bispecific antibody)
heavy: B1 heavy
light: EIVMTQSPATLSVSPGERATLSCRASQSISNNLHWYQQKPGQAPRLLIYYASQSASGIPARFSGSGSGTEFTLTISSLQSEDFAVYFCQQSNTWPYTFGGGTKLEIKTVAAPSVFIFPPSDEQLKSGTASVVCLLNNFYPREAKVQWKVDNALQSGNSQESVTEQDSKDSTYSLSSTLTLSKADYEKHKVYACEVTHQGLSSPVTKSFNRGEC
notes: also called Version 1; Humanized 4G8 FLT3 variable region Variant 1 with V6 CD3 scFv
B3: V5-V6 (CC-2 variant 5, bispecific FLT3xCD3 IgGsc antibody) (bispecific antibody)
heavy: B1 heavy with T58K, A61N
light: B1 light
notes: IgGsc format, Fc-attenuated; also called Version 5; Humanized 4G8 FLT3 variable region Variant 5 with V6 CD3 scFv
B4: V3-V6 (CC-2 variant 3, bispecific FLT3xCD3 IgGsc antibody) (bispecific antibody)
heavy: QVQLVQSGAEVKKPGASVKVSCKASGYTFTSYWMHWVRQAPGQGLEWIGEIDPSDSYKDYNQKFKDRVTMTRDTSTSTVYMELSSLRSEDTAVYYCARAITTTPFDFWGQGTTVTVSSASTKGPSVFPLAPSSKSTSGGTAALGCLVKDYFPEPVTVSWNSGALTSGVHTFPAVLQSSGLYSLSSVVTVPSSSLGTQTYICNVNHKPSNTKVDKKVEPKSCDKTHTCPPCPAPPVAGPSVFLFPPKPKDTLMISRTPEVTCVVVGVSHEDPEVKFNWYVDGVEVHNAKTKPREEQYNSTYRVVSVLTVLHQDWLNGKEYKCKVSNKQLPSPIEKTISKAKGQPREPQVYTLPPSRDELTKNQVSLTCLVKGFYPSDIAVEWESNGQPENNYKTTPPVLDSDGSFFLYSKLTVDKSRWQQGNVFSCSVMHEALHNHYTQKSLSLSPGKSGDIQMTQSPSSLSASVGDRVTITCRASQDIRNYLNWYQQKPGKAPKLLIYYTSRLESGVPSRFSGSGSGTDYTLTISSLQPEDFATYYCQQGNTLPWTFGQGTKVEIKGGGGSGGGGSGGGGSEVQLVESGGGLVQPGGSLRLSCAASGYSFTGYTMNWVRQAPGKGLEWVALINPYKGVSTYNQKFKDRFTISVDKSKNTAYLQMNSLRAEDTAVYYCARSGYYGDSDWYFDVWGQGTLVTVSS
light: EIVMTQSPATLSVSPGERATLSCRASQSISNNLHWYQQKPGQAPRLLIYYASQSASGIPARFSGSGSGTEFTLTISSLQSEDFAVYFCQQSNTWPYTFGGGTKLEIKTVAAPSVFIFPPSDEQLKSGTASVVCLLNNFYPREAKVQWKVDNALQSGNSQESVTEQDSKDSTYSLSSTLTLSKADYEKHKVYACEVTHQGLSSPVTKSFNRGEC
notes: also called Version 3; Humanized 4G8 FLT3 variable region Variant 3 with V6 CD3 scFv
B5: V4-V6 (CC-2 variant 4, bispecific FLT3xCD3 IgGsc antibody) (bispecific antibody)
heavy: B4 heavy
light: B1 light
notes: IgGsc format, Fc-attenuated; also called Version 4; variant V4
B6: V6-V8 (CC-2 variant, parental 4G8 FLT3 domain with UCHT1 CD3 scFv variant V8) (bispecific antibody, human IgG1, kappa)
heavy: QVQLQQPGAELVKPGASLKLSCKSSGYTFTSYWMHWVRQRPGHGLEWIGEIDPSDSYKDYNQKFKDKATLTVDRSSNTAYMHLSSLTSDDSAVYYCARAITTTPFDFWGQGTTLTVSSASTKGPSVFPLAPSSKSTSGGTAALGCLVKDYFPEPVTVSWNSGALTSGVHTFPAVLQSSGLYSLSSVVTVPSSSLGTQTYICNVNHKPSNTKVDKKVEPKSCDKTHTCPPCPAPPVAGPSVFLFPPKPKDTLMISRTPEVTCVVVGVSHEDPEVKFNWYVDGVEVHNAKTKPREEQYNSTYRVVSVLTVLHQDWLNGKEYKCKVSNKQLPSPIEKTISKAKGQPREPQVYTLPPSRDELTKNQVSLTCLVKGFYPSDIAVEWESNGQPENNYKTTPPVLDSDGSFFLYSKLTVDKSRWQQGNVFSCSVMHEALHNHYTQKSLSLSPGKSGDIQMTQSPSSLSASVGDRVTITCRASQDIRNYLNWYQQKPGKAPKLLIYYTSRLESGVPSRFSGSGSGTDYTLTISSLQPEDFATYYCQQGNTLPWTFGQGTKVEIKGGGGSGGGGSGGGGSEVQLVESGGGLVQPGGSLRLSCAASGYSFTGYTMNWVRQAPGKGLEWVALINPYKGVSTYNQKFKDRFTISVDDSKNTAYLQMNSLRAEDTAVYYCARSGYYGDSDWYFDVWGQGTLVTVSS
light: DIVLTQSPATLSVTPGDSVSLSCRASQSISNNLHWYQQKSHESPRLLIKYASQSISGIPSRFSGSGSGTDFTLSINSVETEDFGVYFCQQSNTWPYTFGGGTKLEIKRTVAAPSVFIFPPSDEQLKSGTASVVCLLNNFYPREAKVQWKVDNALQSGNSQESVTEQDSKDSTYSLSSTLTLSKADYEKHKVYACEVTHQGLSSPVTKSFNRGEC
notes: IgGsc format, Fc-attenuated
B7: V6-V6 (CC-2, FLT3 (4G8) x CD3 (humanized UCHT1) bispecific IgGsc antibody) (bispecific antibody)
heavy: B6 heavy with D645K
light: B6 light
notes: Mouse 4G8 variable regions on human IgG1 constant regions, Fc-attenuated, C-terminal humanized UCHT1 scFv; also called mouse FLT3xCD3 bispecific antibody
B8: V6-V7 (CC-2 variant, parental 4G8 FLT3 domain with UCHT1 CD3 scFv variant V7) (bispecific antibody, human IgG1, kappa)
heavy: B6 heavy with N632A, Q633D, K634S, D637G
light: B6 light
notes: IgGsc format, Fc-attenuated
B9: V6-V9 (CC-2 variant, parental 4G8 FLT3 domain with UCHT1 CD3 scFv variant V9) (bispecific antibody, human IgG1, kappa)
heavy: QVQLQQPGAELVKPGASLKLSCKSSGYTFTSYWMHWVRQRPGHGLEWIGEIDPSDSYKDYNQKFKDKATLTVDRSSNTAYMHLSSLTSDDSAVYYCARAITTTPFDFWGQGTTLTVSSASTKGPSVFPLAPSSKSTSGGTAALGCLVKDYFPEPVTVSWNSGALTSGVHTFPAVLQSSGLYSLSSVVTVPSSSLGTQTYICNVNHKPSNTKVDKKVEPKSCDKTHTCPPCPAPPVAGPSVFLFPPKPKDTLMISRTPEVTCVVVGVSHEDPEVKFNWYVDGVEVHNAKTKPREEQYNSTYRVVSVLTVLHQDWLNGKEYKCKVSNKQLPSPIEKTISKAKGQPREPQVYTLPPSRDELTKNQVSLTCLVKGFYPSDIAVEWESNGQPENNYKTTPPVLDSDGSFFLYSKLTVDKSRWQQGNVFSCSVMHEALHNHYTQKSLSLSPGKSGEVQLVESGGGLVQPGGSLRLSCAASGYSFTGYTMNWVRQAPGKGLEWVALINPYKGVSTYNQKFKDRFTISVDKSKNTAYLQMNSLRAEDTAVYYCARSGYYGDSDWYFDVWGQGTLVTVSSGGGGSGGGGSGGGGSDIQMTQSPSSLSASVGDRVTITCRASQDIRNYLNWYQQKPGKAPKLLIYYTSRLESGVPSRFSGSGSGTDYTLTISSLQPEDFATYYCQQGNTLPWTFGQGTKVEIK
light: B6 light
notes: IgGsc format, Fc-attenuated

Each binder was assayed against T1, His tagged, recombinant FLT3 protein … (assay: SPR (Biacore X); antibody captured on protein A chip, His-tagged FLT3 in solution).

| Binder | Kd [nM] | koff [s⁻¹] | kon [M⁻¹ s⁻¹] |
| --- | --- | --- | --- |
| B1 | 88000 | 0.0318 | 540 |
| B2 | 63000 | 0.022 | 489 |
| B3 | 160 | 0.00449 | 29600 |
| B4 | 87000 | 0.0233 | 276 |
| B5 | 480 | 0.00887 | 18800 |

What follows are binders tested against T2, FLT3 as expressed on cells (NALM16 …) (assay: flow cytometry on FLT3+ NALM16 cells; value told of the FLT3 binding part shared by V6 to V9).

| Binder | EC50 [nM] |
| --- | --- |
| B6 | ~1 |
| B7 | ~1 |
| B8 | ~1 |
| B9 | ~1 |

These binders were tested against T3, CD3 as expressed on Jurkat cells (CD3+) (human, UniProt P07766 23-207) (assay: flow cytometry on CD3+ Jurkat cells; value told of the CD3 binding part shared by V1 to V5).
T3 construct: whole, on cells; CD3 is a complex of several chains; also called Jurkat cells expressing CD3
T3 sequence (P07766 23-207): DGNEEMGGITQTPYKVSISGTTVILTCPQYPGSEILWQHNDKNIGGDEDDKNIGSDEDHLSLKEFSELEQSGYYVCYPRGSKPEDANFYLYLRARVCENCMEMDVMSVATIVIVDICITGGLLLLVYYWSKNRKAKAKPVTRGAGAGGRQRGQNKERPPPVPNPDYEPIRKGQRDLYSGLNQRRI

| Binder | EC50 [nM] |
| --- | --- |
| B1 | ~10 |
| B2 | ~10 |
| B3 | ~10 |
| B4 | ~10 |
| B5 | ~10 |
